Positions count from the first letter of the chain named. Names may count otherwise.
B1: FKBP-195: combinatorial FKBP13 mutant construct of Table 10, carries K135Y (protein)
chain: HCPIKSRKGDVLHMHYTGKLEDGTEFDSSLPRNQPFVFSLGTGERIKGWDQGLLGMCEGEKRKLVIPSELGYGERGWPPKIPGGATLVFEVELLYIER
modifications: Description of sequence: Construct Name: FKBP-195; Mutation(s): Q72R Q84E A117W V85R DRD K135Y
B2: FKBP-161 (protein)
chain: B1 chain with M14S, Y95K
modifications: Description of sequence: Construct Name: FKBP-161; Mutation(s): Q72R Q84E A117W DRD M54S V85R
B3: FKBP-199: FKBP13 DRD-AcGFP construct of Table 10 (protein)
chain: B1 chain with E58L, Y95K
modifications: Description of sequence: Construct Name: FKBP-199; Mutation(s): Q72R Q84E A117W V85R DRD E98L
B4: FKBP-196 (protein)
chain: B1 chain with Y95K, I96V
modifications: Description of sequence: Construct Name: FKBP-196; Mutation(s): Q72R Q84E A117W V85R DRD I136V
B5: FKBP-194 (protein)
chain: B1 chain with L64V, Y95K
modifications: Description of sequence: Construct Name: FKBP-194; Mutation(s): Q72R Q84E A117W V85R DRD L104V
B6: FKBP-191: FKBP13 DRD-AcGFP construct of Table 10 (protein)
chain: B1 chain with G9S, Y95K
modifications: Description of sequence: Construct Name: FKBP-191; Mutation(s): Q72R Q84E A117W V85R DRD G49S
B7: FKBP-198: FKBP13 DRD-AcGFP construct of Table 10 (protein)
chain: B1 chain with K61W, Y95K
modifications: Description of sequence: Construct Name: FKBP-198; Mutation(s): Q72R Q84E A117W V85R DRD K101W
B8: FKBP-200: FKBP13 DRD-AcGFP construct of Table 10 (protein)
chain: B1 chain with D22S, Y95K
modifications: Description of sequence: Construct Name: FKBP-200; Mutation(s): Q72R Q84E A117W V85R DRD D62S
B9: FKBP-255: FKBP13 DRD-AcGFP construct of Table 10 (protein)
chain: B1 chain with G59R, Y95K
modifications: Description of sequence: Construct Name: FKBP-255; Mutation(s): Q72R Q84E A117W V85R DRD G99R
B10: FKBP-160 (protein)
chain: B1 chain with M14A, Y95K
modifications: Description of sequence: Construct Name: FKBP-160; Mutation(s): Q72R Q84E A117W V85R DRD M54A
B11: FKBP-201: FKBP13 DRD-AcGFP construct of Table 10 (protein)
chain: B1 chain with H13L, Y95K
modifications: Description of sequence: Construct Name: FKBP-201; Mutation(s): Q72R Q84E A117W V85R DRD H53L
B12: FKBP-192: FKBP13 DRD-AcGFP construct of Table 10 (protein)
chain: B1 chain with P35L, Y95K
modifications: Description of sequence: Construct Name: FKBP-192; Mutation(s): Q72R Q84E A117W V85R DRD P75L
B13: FKBP-202 (protein)
chain: B1 chain with G9S, M14A, Y95K
modifications: Description of sequence: Construct Name: FKBP-202; Mutation(s): Q72R Q84E A117W V85R DRD M54A G49S
B14: FKBP-193 (protein)
chain: B1 chain with D50A, Y95K
modifications: Description of sequence: Construct Name: FKBP-193; Mutation(s): Q72R Q84E A117W V85R DRD D90A
B15: FKBP-254 (protein)
chain: B1 chain with R45V, G59R, Y95K
modifications: Description of sequence: Construct Name: FKBP-254; Mutation(s): Q72R Q84E A117W DRD G99R
B16: FKBP-175 (protein)
chain: B1 chain with D10A, M14A, T17I, R45V, Y95K, I96L
modifications: Description of sequence: Construct Name: FKBP-175; Mutation(s): Q72R Q84E A117W DRD M54A D50L T57I I136L
B17: FKBP-184 (protein)
chain: B1 chain with S6G, M14A, V91G, Y95K
modifications: Description of sequence: Construct Name: FKBP-184; Mutation(s): Q72R Q84E A117W V85R DRD M54A S36G V131G
B18: FKBP-190 (protein)
chain: B1 chain with M14A, F89T, Y95K
modifications: Description of sequence: Construct Name: FKBP-190; Mutation(s): Q72R Q84E A117W V85R DRD M54A F129T
B19: FKBP-173 (protein)
chain: B1 chain with M14A, R45V, L93G, Y95K
modifications: Description of sequence: Construct Name: FKBP-173; Mutation(s): Q72R Q84E A117W DRD M54A L133G
B20: FKBP-180 (protein)
chain: B1 chain with M14A, R45V, F89T, Y95K
modifications: Description of sequence: Construct Name: FKBP-180; Mutation(s): Q72R Q84E A117W DRD M54A F129T
B21: FKBP-179 (protein)
chain: B1 chain with H13G, M14A, R32L, R45V, Y95K
modifications: Description of sequence: Construct Name: FKBP-179; Mutation(s): Q72R Q84E A117W DRD M54A H53G R72L
B22: FKBP-176 (protein)
chain: B1 chain with M14A, R45V, G76E, Y95K
modifications: Description of sequence: Construct Name: FKBP-176; Mutation(s): Q72R Q84E A117W DRD M54A G116E
B23: FKBP-183 (protein)
chain: B1 chain with M14A, L93G, Y95K
modifications: Description of sequence: Construct Name: FKBP-183; Mutation(s): Q72R Q84E A117W V85R DRD M54A L133G
B24: FKBP-174 (protein)
chain: B1 chain with S6G, M14A, R45V, V91G, Y95K
modifications: Description of sequence: Construct Name: FKBP-174; Mutation(s): Q72R Q84E A117W DRD M54A S36G V131G

tested on: not listed separately; experiment: Example 4: dose response of FKBP constructs 160-255, Ec50, Ec90 and fold change (raw and normalized to mCherry); assay type: cell-based; conditions: FKBP constructs 160-255; not normalized; read-out: EC90
Procedure: Additional experiments were performed for constructs FKBP-160-292.

Molecule	EC90
B1	165 nM
B2	512 nM
B3	71.7 nM
B4	115 nM
B5	102 nM
B6	367 nM
B7	253 nM
B8	160 nM
B9	101 nM
B10	42.2 nM
B11	144 nM
B12	230 nM
B13	1010 nM
B14	13000 nM
B15	369 nM

same assay, conditions: fold change during initial analysis

Molecule	FC (fold change)
B1	50.1
B16	7.25
B17	1
B18	0.9
B2	32.3
B19	4
B3	27.1
B4	34.7
B20	1.2
B21	3.1
B5	24.8
B22	6.8
B23	4
B6	50.6
B7	54.3
B8	33.9
B9	33.0
B10	25.7
B24	0.9
B11	33.1
B12	55.0
B13	46.2
B14	37.8
B15	35.6

same assay, conditions: normalized to mCherry; read-out: EC90 (Norm)

Molecule	EC90
B1	140 nM
B2	541 nM
B3	67.5 nM
B4	113 nM
B5	122 nM
B6	391 nM
B7	274 nM
B8	150 nM
B9	101 nM
B10	48.2 nM
B11	153 nM
B12	228 nM
B13	1060 nM
B14	15000 nM
B15	373 nM

tested on: Jurkat cells; experiment: Tacrolimus dose response of FKBP13-AcGFP-mCherry constructs stably transduced into Jurkat cells, GFP MFI by flow cytometry; assay type: cell-based; set-up: Basal: unit not given here; conditions: FIG. 39
Summary of the method: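 Jurkat E6-1 cells lentivirally transduced with FKBP13-AcGFP-mCherry constructs to 10-25% mCherry+ (day 5) were dosed with tacrolimus. GFP geometric MFI in mCherry+ cells was measured by flow cytometry and fitted to dose-response curves.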

Molecule	Basal	FC	Peak
B1	68.4	90	5808

same assay, conditions: FIG. 50

Molecule	Basal	FC
B1	75.5	61.07

same assay, conditions: FIG. 50; at 10 uM

Molecule	At 10 uM
B1	4611

same assay, conditions: absence of tacrolimus

Molecule	basal AcGFP expression
B1	lowest basal expression

same assay, conditions: tacrolimus; FIG. 35

Molecule	FC	Peak
B1	89.61	4362

same assay, conditions: tacrolimus; FIG. 36

Molecule	FC	Peak
B1	89.61	4362

same assay, conditions: tacrolimus; FIG. 37

Molecule	FC	Peak
B1	89.61	4362

same assay, conditions: tacrolimus; FIG. 38

Molecule	FC	Peak
B1	89.61	4362

same assay, conditions: tacrolimus; FIGS. 29 and 30

Molecule	FC
B1	66

same assay, conditions: tacrolimus; FIGS. 31 and 32

Molecule	FC
B1	66

same assay, conditions: tacrolimus; FIGS. 33 and 34

Molecule	FC
B1	66

Reference: patent publication US20250186614A1, “COMPACT DRUG RESPONSIVE DOMAINS FOR REGULATION OF FUNCTION/ABUNDANCE AND DELIVERY OF POLYPEPTIDE PAYLOADS” (OBSIDIAN THERAPEUTICS, INC., priority 2022, published 2025)
